Protein production data for 19 sequences are collected here from a protein production outcome set (Wang et al. 2014).

This data set in a line: label from the status in PepcDB records.
As for “MKRRRRNSKLKFEETSDQSPTSTAEFSFSLTKIAVSQICQSIGYKATDASALNTLTLTTTKFLQSLAELASSFSNTANRTEVNLFDIVNGLQDIALSTSDCFPGGSTVHDIESQCLIKSAVLRNLSDFVTYAPEIPFAKPLPRRERDGSFGGDLDHVAVTRSVDVTSVPAWLPPFPDSSLCSDRCSKDNRSDHLWENSDSVIRREILPESLKSKSGGRLPVMRDKVRFKMEQRDWSSGGDTRLERSRDNNNGESGRDLEVKKKIREGYTYCAGEWPF”, the protein production result was “failed”.

For “SLENAGSRPFLADFNGFSYLELKGLHTFERDLGEKMALEMVFLARGPSGLLLYNGQKTDGKGDFVSLALHNRHLEFRYDLGKGAAIIRSKEPIALGTWVRVFLERNGRKGALQVGDGPRVLGESPVPHTMLNLKEPLYVGGAPDFSKLARGAAVASGFDGAIQLVSLRGHQLLTQEHVLRAVDVAPFAG”, the protein production result is on record as “not failed”.

As to “MARSEGNRPRHRAVPQPSRIRKRLSRGVMTLVSVVALLMTGAGYWVAHGALGGITISQALTPEDPRSSGNNMNILLIGLDSRKDQEGNDLPWSVLKQLHAGDSDDGGYNTNTLILVHVGADGKVVAFSIPRDDWVPFTGVPGYNHIKIKEAYGLTKQYVAEQLANQGVSDRKELETRGREAARAATLRAVRSLTGVPIDYFAEINLAGFYDLAQTLGGVDVCLNHAVYDSYSGADFPAGRQRLNAAQALAFVRQRHGLDNGDLDRTHRQQAFLSSVMRELQDSGTFTNLDRLDNLMAVARKDVVLSAGWDEDLFRRMGDLAGGNVEFRTLPVVRYDNIDGQDVNIIDPTAIRAEVAAAFGSAPPTSQTAAAAKPNPSTVVDVVNAGSISGLASQVSGALLKRGYTAGQVRDRESGDPFTTAIEYGAGAETDAQNVADLLGIDAPNHPDPAVAPGHIRVTVDTNFSLPAPDEATAAATSTETSTYPLYGGGTTTDPTPDQGAPIDGGGVPCVN”, the protein production entry is given as “failed”.

“MTKSQIMDLSNFYQDTDYPSGRLIALLILSLGLTPAEIANLKKADFDTTFNILSIEKSQMKRILKLPEDLLPFLLESLEEDGDLVFEHNGKPYSRQWFFNQLTDFLNEKNEQQLTAQLLREQFILKQKENGKTMTELSRLLGLKTPITLERYYRLEHHHHHH”: the protein production result was “not failed”.

Turning to “MSVQKAVKSSHYEAESNMEQDIVRKAWVFKPSGLNFIWGGDSRYWVIPNEDRTPAELKKVSWLEVTGSYDKIEPGKTYRIGFKISFTADATGWDQAPVFMSAKIGKKGRTIWKRIKSVNNNFDKLKGGTGPVNIPDETDGRFEIFVSPKVAINQDTKLQFGLYEVWTGKWKTGLLIYEAFVEEV”, the protein production entry is reported as “failed”.

Turning to “MWLRRKRAPVNGVVTLDRRHLYILPTRGGIGFSVLLATMLLTSLNYAISLGFALTFLLAGIGMGCMWMAYRNLLDLRVSAGPVTPAFVGECAIFTLHVDNQDAAARIGIEARTPLSGADTETAALTLDGVSSGTLPVRLSAIRRGRLVLPRVTLSSRFPFGLFRVWSYADLGLATVVYPAPEASPPPLPRHPQSDDADDGAASFAADDGIDQLRRYRPGDPLHRIAWKHSARTGKWLTRSGHTPQQPSCWIDWNTLPPAMDTEARLSRLCAWVLMAGEVSEIGLRLPGVEITPGRGSAHVRACLEALALWPERRAR”, the protein production result is “failed”.

As to “MPREFKSFGSTEKSLLSKGHGEPSYSEIYAEPENFLEIEVHNPKTHIPNGMDSKGMFTDYEIICRTNLPSFHKRVSKVRRRYSDFEFFRKCLIKEISMLNHPKVMVPHLPGKILLSNRFSNEVIEERRQGLNTWMQSVAGHPLLQSGSKVLVRFIEAEKFVG”, the protein production entry is “not failed”.

Turning to “MRQHWRMRHLALACFLLAPGAALASDCPTAPDHSERIAHLIEDIRAAPNEMQARTISNRMWEIWADAPDEAAQAILDNGMSRRRAWDLLGALSEFDRLVAYCPDYAEGYNQRAFANFLRQDFAAALIDLDRALALSPNHVAAMSGRALTLMGLGRIDEARSVLNQALELNPWLPERGLVAPGGPLEPKGKDI”, the protein production result is “failed”.

In the case of “NNQIGFCGVRKNINGNLYLLVYGMPAAINIDPIEKKPILHMYPNSLIYSISTVGCSFACQYCQNYDISQRRNIEGFDYSPEEIVNSAIEDGCRGIAYTYNEPSIFMEFAHDVGILARKRGLINIFVTNGYETPEAVEYSKDFLDAATVDFKGNASNDFYRKYISVPSADPIFDTIKLMKESGIHVEITDLVVPRVGDKLSDARSMLERLISILGYEFPISFLRFHPDYKMMDLPPTPLETLKAHYNLAVSMGLKYVYIGNVPGYYEDTYCPNCHSLLIKRHGFNSSVV”, the protein production result was “failed”.

For “MNRMMALVMAGGRGTRLAIDCEKPLLEVAGRPMIDHVLEALESATGVDGIIVVTSPHTPMTEDHVRGRHPIFRASGGGYVEDLREVLSHLEESYHEPLLVINSDLPLVRPSTIDWIISSYHSCPEPAMCVAVPDDLCRRHGLDFSGSLDGLVPCGVNILMSKNRVQEQRILEASMLELAVNINSCRDLKVLEKILGEIDGREEAHKRGREVLELEHHHHHH”, the protein production result is listed as “not failed”.

For “METGTHVRDVIFPGGNAAPDAGSVVAAIHQLPTLRLLSLDAHGRVLDWINWQDAACLYARDAVSWTLGEPCMQIHGGISRLTGERSTLELHPIIAARGHARSRALDPTPTLSNTALFARDAQLCMYCGQHFSRPHLTRDHVMPVSKGGRDSWENVVTACFQCNSRKANRTPQQAHMPLLAVPYRPSWIEHLILSNRNILSDQMAFLRAQLPKRSKLSLQAGAPRVADPG”, the protein production entry is recorded as “failed”.

Take “MTKKAILLSFLGGFLSLSLEVIWIRLLGFQTFSLPQAFSFTLALFLLGIAFSSFIGKKVCQQGDASINYIGRIFFIAALFDCLAIGLISTTSNSFTNLVYSIFSIFCCALLRGIVFPIVHHLGSEHKKTGAAISNVYFANVLGCTIAPIFIGFYLLDQFTTQQTYLIVISITLIIACFCLTKRVFKAINALFAISVVFATALLPEKMISTLANEEDMQLETLIENKHGIIQVYLDKNQDHLVYGSNVYDGQLNVNLNHNSNGIHRAYLLPAHRK”: the protein production entry is given as “failed”.

On to “AIARGHGTYMDEDRLTASVAGQVERVNKLICVKPLKTRYNGEVGDVVVGRITEVQQKRWKVETNSRLDSVLLLSAVNLPGGELRRRSTQDELAMRDYLQEGDLISAEVQSIFSDGALSLHTRSLKYGKLGQGVLVYVSPSLVKRQKTHFHNLPCGASLILGNNGYVWLSPTPALQEEQAGGFYTSMEPVSLSDREVVSRLRNCLLALANQKVLLFDTSVLYCYEASLQHQIKDILKPEIMEEIVLETRQRLMEHEG”, for which the protein production result is on record as “not failed”.

For “MKRWTTLLIVICMLGITIPAMGAMSISKMRQNTRFLTDRMAYELKLTPRQYNDVYEVNYDFINNVRYLMDDVVRGYDYALERYYDFLDVRNDDLRWILSSAQYRRFMRAEHFYRPIYAHENKWHFRIYLVYNNVNFFYYGKPHHYASYCGGHYRTHFNNVSYYKTHYRDHYRHDVYDGHYRIRHDRMTYDMHRRRDFNIAVRPPQKEHHRPATPPQTRPNRPQIHPDRPSGDHRRPSVPQARPDRPKKDQNNKHDGRPSRRGQNSQVDKDRHENRRITPSGRDVRRGNGKKEKDSDRSGGSNKSNSKERTAVRMRTV”, the protein production entry is “failed”.

Consider “MIEMLGIKIPLRKTTILPVLSFTLSSYFLTNFIFYLQYTDYTGLVEFLLIGAPFIGRAITPITYPFLMSRINIERITYLSLGNMAILDILEFFMGTDTLALILLRVATGILFGLATSAAVELATQSRSKIIMGMTMGGWALGWILSALMSFLMGKMVLITSSFSLVFFLLIKRSNIDKKLFSNSGSISIAFSWKALLIFLLGFEPAYILQLIPSLLGENNAIEETIIAYSISFIAYIILPSIGNIRISSLLTSLMIGILGFTSFITLKAWMFIPFTVLGLGLNSLLPIIIKLMKVEVTKIGPSMNLASLSGFLIPSLVSIGDIEINSAILTLISSISLGAIVYKNLKITA”, for which the protein production result was “failed”.

“MISAHCNLRLLCSSDSSASASQVAGTTEVVENLVTNDNSPNIPEAIDRLFSDIANINRESMAEIADIQIEEMAVNLWNWALTIGGGWLVNEEQKIRLHYVACKLLSMCEASFASEQSIQRLIMMNMRIGKEWLDAGNFLIADECFQAAVASLEQLYVKLIQRSSPEADLTMEKITVESDHFRVLSYQAESAVAQGDFQRASMCVLQCKDMLMRLPQMTSSLHHLCYNFGVETQKNNKYEESSFWLSQSYDIGKMDKKSTGPEMLAKVLRLLATNYLDWDDTKYYDKALNAVNLANKEHLSSPGLFLKMKILLKGETSNEELLEAVMEILHLDMPLDFCLNIAKLLMDHERESVGFHFLTIIHERFKSSENIGKVLILHTDMLLQRKEELLAKEKIEEIFLAHQTGRQLTAESMNWLHNILWRQAASSFEVQNYTDALQWYYYSLRFYSTDEMDLDFTKLQRNMACCYLNLQQLDKAKEAVAEAERHDPRNVFTQFYIFKIAVIEGNSERALQAIITLENILTDEESEDNDLVAERGSPTMLLSLAAQFALENGQQIVAEKALEYLAQHSEDQEQVLTAVKCLLRFLLPKIAEMPESEDKKKEMDRLLTCLNRAFVKLSQPFGEEALSLESRANEAQWFRKTAWNLAVQCDKDPVMMREFFILSYKMSQFCPSDQVILIARKTCLLMAVAVDLEQGRKASTAFEQTMFLSRALEEIQTCNDIHNFLKQTGTFSNDSCEKLLLLYEFEVRAKLNDPLLESFLESVWELPHLETKTFETIAIIAMEKPAHYPLIALKALKKALLLYKKEEPIDISQYSKCMHNLVNLSVPDGASNVELCPLEEVWGYFEDALSHISRTKDYPEMEILWLMVKSWNTGVLMFSRSKYASAEKWCGLALRFLNHLTSFKESYETQMNMLYSQLVEALSNNKGPVFHEHGYWSKSD”: the protein production entry is “failed”.

Take “MNSILPSVSTLAVGARPARPNVSVVMVVYRTGEALVESIRHVLAEPLVDEFIIVDNGSSSRDEDMLRSLALTEPRVVLKQGHGNVGFARGANLGAVTAGGEYIVFLNPDANLQPSCVASLVTAFKGQPVPTIVGARVLNTDGSEQRGGRRGDVTPISTVLSFGQLTRRYPKLAGFEIHRENEPLPGAPVPMPTISGACFAMRRADFVALNGFDEGYFLHVEDIDLCWRARRAGGQVLFQPNAEVVHLGHTSLEHPVKVEFHKGVGLTRYFIKRADSLQLFAAAVLLAPAIMLMSVCRPLLWKLTGRPI”: the protein production entry is “failed”.

For the sequence “MQSNLLAVLFALASALTIAWGTVVRHRIALRTPKDGSLRSSPLLNALMTPMWWAGMSTAMLAYFLQTVALGFGTLLVVQPVLVLSLMFTLPLSARFNGYRLRRTEIFWATLLTVAVGIMIVLGRPLPGNPHPPLDRWIPVLLVGVAVMGGMWLLAEYVLKKDKALILGLVTGALFGYVAVMSKAAVDLFVHQGITGLILNWEGYGLILTALLGTIVQQYSFNAGELQKSLPAMTIAEPIVAFSLGYLVLGEKFQVVDWEWIAMGIALLVMIVSTIALSRTSTMPAGSKR”, the protein production entry is “failed”.

For the sequence “MGREFIPLFEDWAATYDQTVQGLDIQYKEAFRGYDHILDAIVRKSGTHVLEFGPGTGNLTAKLLDAGKTVFGIEPSPAMRKLASDKLSGRTEIVDGDFLTFPEPPFQADTIVSSYAFHHLTDEEKRAAIKQYGKYLHLHDKIVFADTVFENAQAYQQAIDKARSQGFYQLANDLETEHYPTLDALKEMFTAEGFAVRFTQQNDFVWIMEAIKRLEHHHHHH”, the protein production result is recorded as “failed”.
